Data reported in the supplement of paper PMC9732359.
± gives the uncertainty stated by the source.

Assay: protein stability index of a GFP-peptide fusion (yeast GPS) (PSI 1-4); higher = more stable; sorted into four equal gates, so the index is relative within each strain
Outline: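 Sequencing reads from sorted gates were used to score each peptide. The library consisted of tiled 17-residue yeast protein peptides fused downstream of GFP on a Cherry-expressing plasmid, pooled and carried in yeast. Mid-log cultures in leucine-free medium were split into four equal gates by GFP/Cherry ratio, and each gate's plasmids were PCR-amplified and Illumina-sequenced. The protein stability index adds up, over all gates, the read frequency multiplied by the gate number.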

IKTVVLVPQLGHVGSVQ [PRP8]
protein stability index (doa10∆): 2.42 ± 0.056 | protein stability index (pdr5∆): 2.47 ± 0.049 | protein stability index (san1∆): 2.28 ± 0.063 | protein stability index (ubr1∆): 2.35 ± 0.041

SENRDKFLQEFINLLLN [IRR1]
protein stability index (doa10∆): 2.53 ± 0.069 | protein stability index (pdr5∆): 2.07 ± 0.083 | protein stability index (san1∆): 2.43 ± 0.076 | protein stability index (ubr1∆): 2.21 ± 0.069

SKGYVKTQFSWQYYYYT [RPS10A]
protein stability index (doa10∆): 2.81 ± 0.077 | protein stability index (pdr5∆): 2.54 ± 0.06 | protein stability index (san1∆): 2.76 ± 0.05 | protein stability index (ubr1∆): 2.92 ± 0.056

SKQTPQPKAPRAPKVIH [ISW2]
protein stability index (doa10∆): 2.91 ± 0.05 | protein stability index (pdr5∆): 3.14 ± 0.054 | protein stability index (san1∆): 2.93 ± 0.041 | protein stability index (ubr1∆): 3.14 ± 0.047

MDHEEARRKHVSGKILG [RPS22A]
protein stability index (doa10∆): 2.83 ± 0.28 | protein stability index (pdr5∆): 2.65 ± 0.24 | protein stability index (san1∆): 2.87 ± 0.24 | protein stability index (ubr1∆): 3.02 ± 0.12

MDIMEDFLRYINIKYLR [SNF2]
protein stability index (doa10∆): 1.54 ± 0.039 | protein stability index (pdr5∆): 1.37 ± 0.044 | protein stability index (san1∆): 1.37 ± 0.12 | protein stability index (ubr1∆): 1.3 ± 0.036

LAIDNMYILGMCVSKGN [YCG1]
protein stability index (doa10∆): 2.19 ± 0.069 | protein stability index (pdr5∆): 2.02 ± 0.061 | protein stability index (san1∆): 2.27 ± 0.089 | protein stability index (ubr1∆): 2.42 ± 0.057

VDIDDPDMMVDSFTMPN [SNF2]
protein stability index (doa10∆): 3.27 ± 0.11 | protein stability index (pdr5∆): 2.86 ± 0.094 | protein stability index (san1∆): 2.71 ± 0.085 | protein stability index (ubr1∆): 3.15 ± 0.089

SLRRQVKKLEIQQHARY [RPL43A]
protein stability index (doa10∆): 2.75 ± 0.11 | protein stability index (pdr5∆): 2.89 ± 0.1 | protein stability index (san1∆): 2.96 ± 0.077 | protein stability index (ubr1∆): 3.29 ± 0.09

LEALRQNYRLDGRSFDQ [RRP45]
protein stability index (doa10∆): 2.43 ± 0.11 | protein stability index (pdr5∆): 1.97 ± 0.12 | protein stability index (san1∆): 1.61 ± 0.14 | protein stability index (ubr1∆): 2.81 ± 0.086

FEDQVTNILTKVDINAD [PRP28]
protein stability index (doa10∆): 3.19 ± 0.2 | protein stability index (san1∆): 3.2 ± 0.18

RHSGKVYPITLSTDATS [UBP6]
protein stability index (doa10∆): 1.98 ± 0.072 | protein stability index (pdr5∆): 2.76 ± 0.066 | protein stability index (san1∆): 2.74 ± 0.057 | protein stability index (ubr1∆): 2.02 ± 0.045

SKSLQESGDTQEEDEEE [RPC82]
protein stability index (doa10∆): 3.5 ± 0.19 | protein stability index (pdr5∆): 3.48 ± 0.15 | protein stability index (san1∆): 3.29 ± 0.08 | protein stability index (ubr1∆): 3.48 ± 0.12

MMCDFGTGNNNKLNFIV [DIB1]
protein stability index (doa10∆): 1.13 ± 0.084 | protein stability index (pdr5∆): 1.22 ± 0.048 | protein stability index (san1∆): 1.96 ± 0.15 | protein stability index (ubr1∆): 1.6 ± 0.061

NNESSDDMDIDEVNDRS [PCI8]
protein stability index (doa10∆): 3.09 ± 0.086 | protein stability index (pdr5∆): 3.17 ± 0.072 | protein stability index (san1∆): 3.05 ± 0.061 | protein stability index (ubr1∆): 3.09 ± 0.081

KKKVYTTPKKIKHKHKK [RPS31]
protein stability index (doa10∆): 3.38 ± 0.16 | protein stability index (pdr5∆): 2.86 ± 0.2

KKEANLFPEQQTKEIKT [RPL6B]
protein stability index (doa10∆): 2.62 ± 0.08 | protein stability index (pdr5∆): 3.25 ± 0.074 | protein stability index (san1∆): 2.56 ± 0.082 | protein stability index (ubr1∆): 3.23 ± 0.076

LDIGLQRTTTGARVFGA [RPL5]
protein stability index (doa10∆): 1.35 ± 0.073 | protein stability index (pdr5∆): 1.29 ± 0.096 | protein stability index (san1∆): 1.31 ± 0.13 | protein stability index (ubr1∆): 1.12 ± 0.071

TENVAQARIILNHILEK [YGR119C/NUP57]
protein stability index (doa10∆): 2.58 ± 0.081 | protein stability index (pdr5∆): 2.87 ± 0.08 | protein stability index (san1∆): 3.14 ± 0.067 | protein stability index (ubr1∆): 2.86 ± 0.061

YQEDIFVSESPSFVKSG [ISW2]
protein stability index (doa10∆): 2.85 ± 0.098 | protein stability index (pdr5∆): 2.47 ± 0.077 | protein stability index (san1∆): 2.48 ± 0.13 | protein stability index (ubr1∆): 2.73 ± 0.045

AQSSHIRAIRKVISEIL [RPS1A]
protein stability index (doa10∆): 1.55 ± 0.017 | protein stability index (pdr5∆): 1.624 ± 0.015 | protein stability index (san1∆): 1.62 ± 0.031 | protein stability index (ubr1∆): 1.748 ± 0.015

GAETDELSMIMEHFSQQ [RPS12]
protein stability index (doa10∆): 2.88 ± 0.088 | protein stability index (pdr5∆): 3.25 ± 0.1 | protein stability index (san1∆): 3.35 ± 0.059 | protein stability index (ubr1∆): 3.23 ± 0.089

SLHILMIFWNDICQIDT [SRB8]
protein stability index (doa10∆): 1.36 ± 0.031 | protein stability index (pdr5∆): 1.33 ± 0.032 | protein stability index (san1∆): 1.52 ± 0.053 | protein stability index (ubr1∆): 1.92 ± 0.029

PFMLQWGIPLIKELRSK [FAS1]
protein stability index (doa10∆): 1.69 ± 0.069 | protein stability index (pdr5∆): 1.63 ± 0.074 | protein stability index (san1∆): 1.44 ± 0.1 | protein stability index (ubr1∆): 1.58 ± 0.049

ALGMMTRISSQFEKSRK [RET1]
protein stability index (doa10∆): 1.39 ± 0.066 | protein stability index (pdr5∆): 1.27 ± 0.09 | protein stability index (san1∆): 1.37 ± 0.17 | protein stability index (ubr1∆): 1.08 ± 0.06

SYSPTSPSYSPTSPNYS [RPO21]
protein stability index (doa10∆): 2.88 ± 0.065 | protein stability index (pdr5∆): 2.96 ± 0.056 | protein stability index (san1∆): 2.84 ± 0.054 | protein stability index (ubr1∆): 3.066 ± 0.028

IKIGIRVMKSLSINEKD [YCG1]
protein stability index (doa10∆): 1.49 ± 0.087 | protein stability index (pdr5∆): 1.61 ± 0.061 | protein stability index (san1∆): 1.36 ± 0.2 | protein stability index (ubr1∆): 1.56 ± 0.091

EKLTLVTLSEIYNELSY [CSN9]
protein stability index (doa10∆): 1.48 ± 0.047 | protein stability index (pdr5∆): 1.66 ± 0.036 | protein stability index (san1∆): 1.57 ± 0.073 | protein stability index (ubr1∆): 1.49 ± 0.046

QLKYDTSVQEKELMLQS [YIL149C/MLP2]
protein stability index (doa10∆): 2.23 ± 0.11 | protein stability index (pdr5∆): 2.88 ± 0.17 | protein stability index (san1∆): 2.81 ± 0.1 | protein stability index (ubr1∆): 2.53 ± 0.12

DDYDYVMYGTAYKFEEV [RPB8]
protein stability index (doa10∆): 2.55 ± 0.041 | protein stability index (pdr5∆): 2.89 ± 0.048 | protein stability index (san1∆): 2.95 ± 0.055 | protein stability index (ubr1∆): 2.72 ± 0.051

ALTTIKGVGRRYSNLVC [RPS18A]
protein stability index (doa10∆): 2.56 ± 0.089 | protein stability index (pdr5∆): 2.4 ± 0.084 | protein stability index (san1∆): 2.92 ± 0.12 | protein stability index (ubr1∆): 2.62 ± 0.077

TVQSERAFQKQPHIFNN [RPS11A]
protein stability index (doa10∆): 2.69 ± 0.051 | protein stability index (pdr5∆): 2.58 ± 0.043 | protein stability index (san1∆): 2.53 ± 0.045 | protein stability index (ubr1∆): 2.79 ± 0.034

KGGEQISQLYSDAVMAE [YJL041W/NSP1]
protein stability index (doa10∆): 2.25 ± 0.12 | protein stability index (pdr5∆): 2.01 ± 0.12 | protein stability index (san1∆): 2.19 ± 0.14 | protein stability index (ubr1∆): 2.33 ± 0.13

SRTAADILLRLCVLWDD [YCG1]
protein stability index (doa10∆): 2.23 ± 0.24 | protein stability index (ubr1∆): 3 ± 0.24

VCKKADVDLHKRAGELT [RPS18A]
protein stability index (doa10∆): 3.23 ± 0.15 | protein stability index (pdr5∆): 3.31 ± 0.12 | protein stability index (san1∆): 3.39 ± 0.2 | protein stability index (ubr1∆): 3.46 ± 0.11

LGRVRNHFIFNVESAGA [RPC40]
protein stability index (doa10∆): 1.38 ± 0.062 | protein stability index (pdr5∆): 1.5 ± 0.069 | protein stability index (san1∆): 1.62 ± 0.09 | protein stability index (ubr1∆): 1.27 ± 0.065

LIELLTQMDGFDQSTNV [RPT3]
protein stability index (doa10∆): 2.33 ± 0.088 | protein stability index (pdr5∆): 2.19 ± 0.075 | protein stability index (san1∆): 1.56 ± 0.15 | protein stability index (ubr1∆): 2.05 ± 0.08

RPNLPTHNFKLSGVSNS [RGR1]
protein stability index (doa10∆): 1.72 ± 0.13 | protein stability index (pdr5∆): 1.49 ± 0.062 | protein stability index (san1∆): 1.85 ± 0.088 | protein stability index (ubr1∆): 2.12 ± 0.054

DRPGSKFHKREVVEAVT [RPL3]
protein stability index (doa10∆): 3.04 ± 0.15 | protein stability index (pdr5∆): 1.96 ± 0.14 | protein stability index (san1∆): 2.02 ± 0.19 | protein stability index (ubr1∆): 2.41 ± 0.13

KLYDAKRYTSEGTRNRF [YMR129W/POM152]
protein stability index (doa10∆): 3.02 ± 0.098 | protein stability index (pdr5∆): 3.15 ± 0.087 | protein stability index (san1∆): 3.23 ± 0.058 | protein stability index (ubr1∆): 3.02 ± 0.055
